Data from US20020081574.
Read-outs that look alike come from different tables or passages of the source.

Columns and labels:
[1] = biological target: HCV NS3 full length (bacNS3 derived) (Hepatitis C virus strain H) (UniProt P27958)
[2] = biological target: HCV NS3 full length (bacNS3-5B derived) (Hepatitis C virus strain H) (UniProt P27958)
[3] = biological target: HCV NS3 full length (bacNS3-5B derived) (Hepatitis C virus strain H) (UniProt P27958); settings: Km for RNA substrate; helicase strand displacement, PIPES pH 6.5, MnCl2, 37 C

Chain of HCV NS3 full length (bacNS3-5B derived) (Hepatitis C virus strain H) (P27958 1027-1657): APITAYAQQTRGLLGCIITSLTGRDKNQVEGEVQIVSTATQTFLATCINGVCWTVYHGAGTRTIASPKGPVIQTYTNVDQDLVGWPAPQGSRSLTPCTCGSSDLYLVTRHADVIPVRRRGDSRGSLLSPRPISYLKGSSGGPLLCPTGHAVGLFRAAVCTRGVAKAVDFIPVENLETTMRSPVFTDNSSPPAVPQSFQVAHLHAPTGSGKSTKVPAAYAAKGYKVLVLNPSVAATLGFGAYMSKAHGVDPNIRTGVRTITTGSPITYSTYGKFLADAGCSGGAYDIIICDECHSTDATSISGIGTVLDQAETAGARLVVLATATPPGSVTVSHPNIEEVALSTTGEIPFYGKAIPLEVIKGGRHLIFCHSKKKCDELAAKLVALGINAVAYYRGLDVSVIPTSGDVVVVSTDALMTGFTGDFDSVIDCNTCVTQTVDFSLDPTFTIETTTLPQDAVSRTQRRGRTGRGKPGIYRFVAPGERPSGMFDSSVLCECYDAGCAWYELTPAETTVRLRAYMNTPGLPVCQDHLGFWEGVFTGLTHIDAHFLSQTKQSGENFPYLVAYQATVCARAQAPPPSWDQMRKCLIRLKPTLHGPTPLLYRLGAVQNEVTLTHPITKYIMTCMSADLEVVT
Chain of HCV NS3 full length (bacNS3 derived) (Hepatitis C virus strain H) (P27958 1027-1657): as above

Row | Substance | activity ([1]; ATPase rate with poly(U), 0 without) [min⁻¹] | activity ([2]; ATPase rate with poly(U), 23 without) [min⁻¹] | activity [3] [nM] | activity ([1]; helicase catalytic rate) [min⁻¹] | activity ([2]; helicase catalytic rate) [min⁻¹]
1 | poly(U) | 659 | 1050 |  |  | 
2 | standard RNA helicase substrate (3' and 5' single strand regions) |  |  | 0.5 | 0.003 | 0.01
